Consider eight sequences from a protein production outcome set (Wang et al. 2014).

The data set can be described thus: label from the status in PepcDB records.

“SCDSIREDLPRCELWLEFVFDYNMEYADAFNPQVKSVDVLVFDSDDKLLFTKSVKVAALVGGNRMSLTDELDFGSYKVLTVGSLSDRFRLSDNAGNKLVPGTTTLQQVIVSLKRETGGVNFEFQHLYFGEVVEVDHLPSNTNHKIYPVNLIRDTNRFNLALMGYEENKVDGTQYTFEIQAPENAVYSWENEPTGQGPITYVPYYTGPGEISDVVMSARLNTMRLLNRSGWDYKFIIRDANTEAEVWSYNLMTLLSIARPVSRYDGTELPFQEYLDRQSEWNLVFTVVEKNGGGFLQIGIVVGTWIHWLHGMEV”: the protein production result is “not failed”.
For “SDCDIEGKDGKQYESVLMVSIDQLLDSMKEIGSNCLNNEFNFFKRHICDANKEGMFLFRAARKLRQFLKMNSTGDFDLHLLKVSEGTTILLNCTGQVKGRKPAALGEAQPTKSLEENKSLKEQKKLNDLCFLKRLLQEIKTCWNKILMGTKEH”, the protein production result is given as “not failed”.
On to “SDFSRNLYDIGEQLDSEDLASLKFLSLDYIPQRKQEPIKDALMLFQRLQEKRMLEESNLSFLKELLFRINRLDLLITYLNTRKEEMERELQTPGRAQISAYRVMLYQISEEVSRSELRSFKFLLQEEISKCKLDDDMNLLDIFIEMEKRVILGEGKLDILKRVCAQINKSLLKIINDYEEFSKGEELCGVMTISDSPREQDSESQTLDKVYQMKSKPRGYCLIINNHNFAKAREKVPKLHSIRDRNGTHLDAGSHSVAQAGVQWCDLGSLQPPPPWFG”, for which the protein production entry is listed as “not failed”.
With “SDIGQVIHPDDFDKAAADDYVLHEDGEKIYFLIKSKTDEYCFTNLALVHLDGESAVSSKRVLYRYPYAHYPIRHVMFETAGTVDLDVEIKFEIGGKHYSIDVDKKQLEHVKDLYKALLAIAEKQYEGQKMLEFANSSLNHSVTILGGLRQGDMNVPQTFKDLSQESFDWLQGHYYKWNQKDFGSFYEKYINN”, the protein production entry is on record as “not failed”.
In the case of “SDILLVHGSGYGGWCWDATIRALAAHGARARALDLPGRIFTPGLSLADHAAAILQEIRAPVTLVGHSAGGFSIAAAAEAAAPGLIERLIFLCAYAPRDGASVASMRRAQARQPLRPAIRLAPDRLSYSFDPDLAGEALFHDCPPEVRAAALARMGAEPVGPQEERIRLSARYHALPKHYIRCLEDRAIPPETQEAMTADWPAGSVSTLPAGHSPFLSCPEALAKRLISVAAN” it was “failed”; in that of “SDPEISEQDEEKKKYTSVCVGREEDIRKSERMTAVVHDREVVIFYHKGEYHAMDIRCYHSGGPLHLGEIEDFNGQSCIVCPWHKYKITLATGEGLYQSINPKDPSAKPKWCSKGVKQRIHTVKVDNGNIYVTLSKEPFKCDSDYYATGEFKVIQSSS”, “failed”; in that of “SEAGGLPLELWRMILAYLHLPDLGRCSLVCRAWYELILSLDSTRWRQLCLGCTECRHPNWPNQPDVEPESWREAFKQHYLASKTWTKNALDLESSICFSLFRRRRERRTLSVGPGREFDSLGSALAMASLYDRIVLFPGVYEEQGEIILKVPVEIVGQGKLGEVALLASIDQHCSTTRLCNLVFTPAWFSPIMYKTTSGHVQFDNCNFENGHIQVHGPGTCQVKFCTFKNTHIFLHNVPLCVLENCEFVGSENNSVTVEGHPSADKNWAYKYLLGLIKSSPTFLPTEDSD”, “not failed”.
In the case of “SEAKVTRSCAETRQVLGARGYSLNLIPPALISGEHLRVCPQEYTCCSSETEQRLIRETEATFRGLVEDSGSFLVHTLAARHRKFDEFFLEMLSVAQHSLTQLFSHSYGRLYAQHALIFNGLFSRLRDFYGESGEGLDDTLADFWAQLLERVFPLLHPQYSFPPDYLLCLSRLASSTDGSLQPFGDSPRRLRLQITRTLVAARAFVQGLETGRNVVSEALKVPVSEGCSQALMRLIGCPLCRGVPSLMPCQGFCLNVVRGCLSSRGLEPDWGNYLDGLLILADKLQGPFSFELTAESIGVKISEGLMYLQENSAKVSAQVFQECGPPDPVPARNRRAPPPREEAGRLWSMVTEEERPTTAAGTNLHRLVWELRERLARMRGFWARLSLTVCGDSRMAADASLEAAPCWTGAGRGRYLPPVVGGSPAEQVNNPELKVDASGPDVPTRRRRLQLRAATARMKTAALGHDLDGQDADEDASGSGGGQQYADDWMAGAVAPPARPPRPPYPPRRDGSGGKGGGGSARYNQGRSRSGGASIGFHTQTILILSLSALALLGPR”, the protein production entry is listed as “failed”.
